Laboratory results published in the DeepSol protein solubility set.

Assay: soluble on expression in E. coli; label from the status in PepcDB or PDB records

| Sequence | soluble on expression in E. coli |
| --- | --- |
| MVFGENQDLIRTHFQKEADKVRAMKTNWGLFTRTRMIAQSDYDFIVTYQQAENEAERSTVLSVFKEKAVYAFVHLMSQISKDDYVRYTLTLIDDMLREDVTRTIIFEDVAVLLKRSPFSFFMGLLHRQDQYIVHITFSILTKMAVFGNIKLSGDELDYCMGSLKEAMNRGTNNDYIVTAVRCMQTLFRFDPYRVSFVNINGYDSLTHALYSTRKCGFQIQYQIIFCMWLLTFNGHAAEVALSGNLIQTISGILGNCQKEKVIRIVVSTLRNLITSNQDVYMKKQAALQMIQNRIPTKLDHLENRKFTDVDLVEDMVYLQTELKKVVQVLTSFDEYENELRQGSLHWSPAHKCEVFWNENAHRLNDNRQELLKLLVAMLEKSNDPLVLCVAAHDIGEFVRYYPRGKLKVEQLGGKEAMMRLLTVKDPNVRYHALLAAQKLMINNWKDLGLEI | not soluble |
| MSLKITKIETTLFEYKLDRSMGDANSPMGRKKGSGCVLELITDEGISGISIGGQNALPQINSIFDGILLNNDPKAIFSIWKRMVEKYFKGGHDGIANDAISAIDVALWDLKAKINEEPLWKTLGGNNNKVNVYASDIALPINDDDLFNWYSKMSDKFGFKGGKLKVGLDQESDLKRLELMHNALSKNCDDPILYVDSNEYWSPKQTIRNVSEMEERFTLGWIEEPARRWDFLGLKKVSDSLQTPVCAGENLDTLGDFLPYFHHRSADVIQVSHGMTGISGALQIADAAYALELPVTLGGSSGIIHAHIANAIPNCITVEVPHPEPETKVFTSDVTIKDGYAFVGNKPGMGIEVNYEELAKHKVEKVSQKAGPSPYGRRPGAGLYEIPPTKEEISEGQSKEGHHHHHH | soluble |
| TTHKFEHPLNEKTRIYLRVESLLRQAHLASGFADNHQYQLFFRALFDMVEIFEQIQLKSELAKDLEKQRLSYRHWLNVEGVDQEALNSLLNEIDVVHSQLMGAERFGQALKEDRFLSSIRQRFNLPGGSCCFDLPALHYWLHLPIERKKHDANQWQKSLKPLSDALTLWLKLARETGHFKAQIARAGFFQSDADEANILRLHIPMKYGVYPMISGHKNRFAIKFMAFENGQACSQDVEFELAVC | soluble |
| MGSDKIHHHHHHMTQDFSEIFAKYEALVADVDNVFKRVQEAHPECVTCEKGCSDCCYAVFDLSLVEAMYLNHRFGQKFSFGPERSVIVERADETDRKLVKLKRQAHRDVQNGRDAEEILQDMGRVRVRCPLLGETDGCELYEYRPITCRLYGIPTAIGGKAHSCGKSAFLAGKQYPTVNIDRIHERLAQLSLEIRDAVHSRFSELHTVLVPVSMALLTTYDDAYLGAGATAKGNE | not soluble |
| MSRIGRIPVAIPKGVDVKLGDNNTLTVKGQKGTLTKQFHKDMIIKVEGDKIIVQRPSDEKKHKALHGLTRTLINNMVIGVTQGYEKALEINGVGYRAQKQGKKLILTLGYSHPVEMEEPQGITVEVPAPNKIVVKGADKQAVGEFAAKIRSKREPEVYKGKGIKYEDEVIRRKEGKAGGKGKK | not soluble |
| SLDTTRPLSWDFQSQLMSNLKILYCLNMLKLSNWYFGGIMKVYGLFGINENAINDFIENHIKTFTIINALNLETVKNLKEGDLVFITSTLREDLRNGTEGILGRVINVSLVPQMINGFEEKEIIAGRVQLEMLGFAKCVKYESIHVEITFRMY | not soluble |
| MGSDKIHHHHHHMDQAQIEIQVLSSLSQIAASDWDACACPEAEAGGRPLDPFTTHRFLSALEDSGSVGQGTGWQPQYLTCYLDGQLVACAPLYAKGHSQGEYIFDHNWAHAYERAGGRYYPKLQVAVPFTPATGRRFLVRPGYEEIGISALLQGAVQLASDNQLSSLHVTFCTSDEAEAGREIGLMSRSSQQFHWLNDGYAGFEAFLAALSSRKRKNIRKERKQAQGFGGSIETYTGADLRSEHWDAFWRFYQDTGSRKWGTPYLTRAFFEIIHDTMAEDMALVLAERDGVPVAGALNFIGAKTLYGRYWGCMEHHPCLHFELCYYQAIDLAIEMGLDRVEAGAQGEHKLARGYLPTETHSLHWVADPGFRAAIEQYLEAERAAVGEEIEILTSYGPFKKTHVEEQE | not soluble |
| MGSDKIHHHHHHMAVKVLSIDLGATNGKIYEVELKDRLTVKEIKRFRTEGTFLPGKDREHFVWNLPGFYEEIKGVLEASDAQSVGVDTWGVDFALLDENGRLVSLPYHYRDVRTKGVMKKAFEVVPKDEIFQRTGIQFMEINTLYQLYSMVLSNDPFLKTTKHLLMIPDVFNFWLSGEMVSEYTIASTSQCYSVPDGEWAYDLLEKLSIPTEIFPKVVPPGTILGKCRVKKGINVIATACHDTASAVVAVPLEGEGIYISSGTWFLVGTELERPLLSKEALERNFTNEGGYGKIRFLKNATGMWLLEECNRIWKKDYSEIIESVRNVPGFQAFLDPDREEFLHPGNMPERIRNYLERTGQKILERIGEISRLIFESLAFNCRWIVEQIKELTGKRYGKIHVVGGAVRNDLLMSFIASATGKTVVAGPVDATPIGNALVQLITLGAIANINEARKIVKESFELKTFEPKNPELWSEKYEEWRRYKGMRV | not soluble |
| MERVAIFIDGSNLYKGLVQHLGSDYRLNFVEFITLLTAGRKLLRAYYYNAPLPPEDPAAKAHQSFLNYLKRVPYVTVRLGRLERRADGFVEKGVDIQIAVDMLRLAFVNAYDIAVLVSGDGDFAEVVRVVQDLGKQVENTTFHALSSHRLAQQADHFYPLDDFPWERLRAQVSPASPEEEA | soluble |
| MSRMIFLFLIPVVTSCIPTQQIEMPCPTDWEKFERPSGPWCVKLFVGLYLQGNRNEASARCAAEGAVLSGVQNQAELNAMTRQFTKLRYGYFWVGAMRKTSCLMSQLTATCTALNSFEWTDGSTTGTDGFIWKTGDPNNYLYNLYE | not soluble |
| MKTIHIYTNGRFEEKQSGIVREFPLVLHVNGREIATLISSPHDLRFLVAGFLRNQGFVERAEDFHMLAVCDDFGIANARIRGELPERLKPVLTSGCGTGVTFTLETPKIPPPLALPAITTDAVFRLMEELARRADNYRSHGGIHSAAVGDGEGNLLLFAEDIGRHNTLDRIAGEALFKGIDLAGTILVTSGRVSTEMAAKCARLGIALIASRTSATDMAVKMCDEAGIPLIGYVRGGKFTVYAHHERLAMAPPVGAIHELPLPASAQGRRIPGITGVILAGGQSRRMGSNKALLPYKGGRFIEAIHRQLAEIFDEVLLVTNNPEQYDFLPCRKVADIHPGMGALAGIHAGLHHAANPAAFMVACDMPYLNSDLIRHLATLADPGGVLIPESPAGLEPLHAVYGKGCLAAIETTLLSGERRIVSFFGRTNVNRVNAEQVALFDPDYATFSNINTPVDYYRLRDGERDELDAALGADRIAGLEHHHHHH | not soluble |
| MGSDKIHHHHHHMIKILLLIDYSSEFDRKLLRGLVQYSKENGPWLFYRLPSYYSGMYGEKGILKWAKEWKADAIIGQWNNDTVNLLKELNIPIVLQNYHHRSTTYSNLTGDYKGTGRMAAQFFAKRMFHNFAYFGINGVVWSDERCEGFRQEVKRIGGNFYCFESDKHEDEIRIEVSQWLQELPKPIALFCCDDSHALFISETCKISNIHIPEEISLLGVDNDDLICNISDPPISSIELEVERGGYSIGRLIHQQIKKEHEGTFNIVINPIRIELRQSTEKHNIKDPYILEVVKYIESHYNSDLTIESLLAQIPLSRRNFEVKFKNAMHTSIYQYILNCRVNHLADLLLTTDRSLADIATEAGFKDYNNISRIFKKFKGCSPLEYREKKITNR | not soluble |
| MGSDKIHHHHHHMPEILINKPVEDELVESYLLYSMSVIVGRAIPDVRDGLKPVQRRILYGMYELGLKHNSPTKKSARIVGEVMGKYHPHGDAPVYDALVRMAQPFTMRYPLIEGQGNFGSIDRDPPAAMRYTEARLTRLAEEMLEDIEKNTVNMIDNFDGTLKEPEVLPSKVPNLIINGASGIAVGMATNIPPHNLSETVDALIYLIDHPEATVEELMQFIKGPDFPTGAVVVNASELKKVYEEGRGRIIVRGKVHVEDGKRVKRIVITEIPYGVSKAGLIEQIAKIAKDDESLPIRNIRDESDKRGMRIVIEIPKDANEEVIINNLYKRTALQDYFNVQMLVIDKHKRPRLMNLKGLMEAFLEHRFEVIRRRARYEYEQYTRRAHVVEGLLKAARAIGVVVDIVRNSKDVESARQSLMETLEITEEQAKAILDMRLSRLTSLEIENLQNEYSDLVRKISEVKEILEKDEKVKEIMKKEFLYLKQQYGDPRRTEVTDQSIEYNEEELIVEEDVVITLSHKGYLKSTPLNSYRSQKRGGKGITVSKLSEDDEVEFVVVAKNTSSTLFITNLGRAYVLKNYQLETTGRNTRGRHITAFLNLEDTEKIVALASLNGEGRDLVIATKSGKIKRTALKEFENATSNRGVRAIKIEPGDEIVSARVVNSEKETLIVATKMGMAIRFPVSDVRRMGRNAAGVQAIKLQPGDEVVSVDVIPPGEEGEILTVTEKGFGKRTPVQLYRIQRRGGTGLRNISDVNKTGYVVAVRYVRGDEEIVVVTRNGMMIRFPVSEIGVIGRVTKGVKLIELGDDTISKVAVVKD | not soluble |
| MSLKSGCSARQVCAGNTHFAVVTVEKELYTWVNMQGGTKLHGQLGHGDKASYRQPKHVEKLQGKAIHQVSCGDDFTVCVTDEGQLYAFGSDYYGCMGVDKVAGPEVLEPMQLNFFLSNPVEQVSCGDNHVVVLTRNKEVYSWGCGEYGRLGLDSEEDYYTPQKVDVPKALIIVAVQCGCDGTFLLTQSGKVLACGLNEFNKLGLNQCMSGIINHEAYHEVPYTTSFTLAKQLSFYKIRTIAPGKTHTAAIDERGRLLTFGCNKCGQLGVGNYKKRLGINLLGGPLGGKQVIRVSCGDEFTIAATDDNHIFAWGNGGNGRLAMTPTERPHGSDICTSWPRPIFGSLHHVPDLSCRGWHTILIVEKVLNSKTIRSNSSGLSIGTVFQSSSEGHHHHHH | not soluble |
| MGSDKIHHHHHHMHLIDFMNEDIKKKLVKKTYKKKETILFAEQENEYVILMIDGIAEAFILNVKGNISTIHLYRSGSFFGEMEQFNDGKKPVEIVAFTDCNVYKLHRDDFLNWLRGDFEATKFLIREISSKLVVNAELIEELSSLSVKERLLRCISLHYYRSELNLLTKKQLASEVNAPIRSINRAINECVQEHLIAYENKRFSVINQREVLKNLPTT | not soluble |
| MHNQTVRATVFKANAAAPQTKQIYEDDFSELYGEDIIAPPYNIIELKTIAEYSTILQQCIDAYRVNITGFGFDVEYTFDVNASDVDQAKKKRAEKDWARLEAFYKCLHFDESAEMILGYAIEDREKTGNGFMEVLRDGAGKPAGIEYLDVKYMRVCGAGEPVEVSFVYEENGKMKRIKRQKRFRKYVQMINGKKVFFKEYGDPRKMDIRTGEYVNTLAEKYQANEAIHLKIGSGVYGVPRWIGNIVNLYGARKAEELNFMYFKQGRHVPAAITVENGMLSEASYRELQEYMNDLESVENAHKFLLIEAEGIAKEKDLHGGEDITPVSVEIKSLAEILQNDALFLEYDEKSRNKLRSAFRLPPLYTGEAQEYNRATADTARKITEEQVFQPERKTLVNKLNTLLLPELNIHDVRLTLKGPDFRDPLEIAKVLGPFITAGAVSPNDLRDLAGRVLGKTLEEWPEDIYKRPAGQDAEKTNLAALMQELKESIEDIKTS | not soluble |
| MKPKKRQMEYLTRGLIAVQTEQGVFVSWRFLGTDHETTAFHLYRDGKRITRDPIAESTNFLDQNGTADSVYQVAAVNKGREEKLSKKARVWQENVLEVPLAKPEGGVTPDGKPYTYSANDASVGDIDGDGEYEMILKWDPSNSKDNAHDGYTGEVLIDAYKLDGTFLWRINLGRNIRAGAHYTQFMVYDLDGDGKAEIAMKTADGTTDGKGHIIGDEQADFRNEQGRILSGPEYLTVFKGETGEALTTVEYEPPRGKLEDWGDGYGNRMDRFLAGTAYLDGERPSLVMARGYYTRTVLVAYDFRNGRLKKRWVFDSNQPGHEAYAGQGNHSLSVADVDGDGKDEIIYGAMAVDHDGTGLYSTGLGHGDAMHVGDLDPSRKGLEVFQVHEDATKPYGLSLRDAGTGEILWGVHAGTDVGRGMAAHIDPSYKGSLVWGIDPPGNDGMSYGLFTSKGEKISDKAPSSANFAIWWDGDLVRELLDHDWDGTIGRPKIEKWDAENGCLKTIFQPAGVLSNNGTKGNPVLQANLFGDWREEVIWRTEDSSALRIYTTTHLTRHCFYTLMHDPVYRLGIAWQNTAYNQPPHTSFYLGTGMKKPPKPALYIAGSKAEAPLLEHHHHHH | soluble |
